In patent US20250066745A1, “MUTANTS AND USE THEREOF” (BGI SHENZHEN, priority 2021, published 2025):
Where a chain is given by its changes, count along the chain named. In names and notes the source's numbering stands.

B1: Q152R Q163S T167G S170D G174K A182Y G183A: Gaussia luciferase mutant (protein)
chain: MGVKVLFALICIAVAEAKPTENNEDFNIVAVASNFATTDLDADRGKLPGKKLPLEVLKEMEANARKAGCTRGCLICLSHIKCTPKMKKFIPGRCHTYEGDKESAQGGIGEAIVDIPEIPGFKDLEPMEQFIAQVDLCVDCTTGCLKGLANVRCSDLLKKWLPSRCAGFADKIQKQVDKIKGYAGD
modifications: SIGNAL (1)..(17)
notes: Gaussia luciferase mutant
B2: T96P Q163D T167S G174N K178S A182Y G183A: Gaussia luciferase mutant (protein)
chain: B1 chain with T96P, R152Q, S163D, G167S, D170S, K174N, K178S
modifications: SIGNAL (1)..(17)
notes: Gaussia luciferase mutant
B3: Q152R S154F Q163D S170T G174N K178T A182Y: Gaussia luciferase mutant (protein)
chain: B1 chain with S154F, S163D, G167T, D170T, K174N, K178T, A183G
modifications: SIGNAL (1)..(17)
notes: Gaussia luciferase mutant
B4: Q152R Q163S T167G S170V G174K Q175E K178S A182Y G183A: Gaussia luciferase mutant (protein)
chain: B1 chain with D170V, Q175E, K178S
modifications: SIGNAL (1)..(17)
notes: Gaussia luciferase mutant
B5: Q152R Q163T T167S S170N G174K K178S A182Y G183A: Gaussia luciferase mutant (protein)
chain: B1 chain with S163T, G167S, D170N, K178S
modifications: SIGNAL (1)..(17)
notes: Gaussia luciferase mutant
B6: Q152R T167G S170N K178S A182L G183N: Gaussia luciferase mutant (protein)
chain: B1 chain with S163Q, D170N, K174G, K178S, Y182L, A183N
modifications: SIGNAL (1)..(17)
notes: Gaussia luciferase mutant
B7: Q163S T167S S170T G174N K178T: Gaussia luciferase mutant (protein)
chain: B1 chain with R152Q, G167S, D170T, K174N, K178T, Y182A, A183G
modifications: SIGNAL (1)..(17)
notes: Gaussia luciferase mutant
B8: E102K S103T E110A: Gaussia luciferase mutant (protein)
chain: B1 chain with E102K, S103T, E110A, R152Q, S163Q, G167T, D170S, K174G, Y182A, A183G
modifications: SIGNAL (1)..(17)
notes: Gaussia luciferase mutant
B9: T167S S170D G174N Q175E K178N A182L: Gaussia luciferase mutant (protein)
chain: B1 chain with R152Q, S163Q, G167S, K174N, Q175E, K178N, Y182L, A183G
modifications: SIGNAL (1)..(17)
notes: Gaussia luciferase mutant
B10: V29A A30D V31I A32V S33N L40A: Gaussia luciferase mutant (protein)
chain: MGVKVLFALICIAVAEAKPTENNEDFNIADIVNNFATTDADADRGKLPGKKLPLEVLKEMEANARKAGCTRGCLICLSHIKCTPKMKKFIPGRCHTYEGDKESAQGGIGEAIVDIPEIPGFKDLEPMEQFIAQVDLCVDCTTGCLKGLANVQCSDLLKKWLPQRCATFASKIQGQVDKIKGAGGD
modifications: SIGNAL (1)..(17)
notes: Gaussia luciferase mutant
B11: F26A N27D V29R A30G A32E S33G A36P L40A: Gaussia luciferase mutant (protein)
chain: B10 chain with F26A, N27D, A29R, D30G, I31V, V32E, N33G, A36P
modifications: SIGNAL (1)..(17)
notes: Gaussia luciferase mutant
B12: F26D N27D V290 A30D V31I S33R T37L: Gaussia luciferase mutant (protein)
chain: B10 chain with F26D, N27D, A29V, V32A, N33R, T37L, A40L
B13: V29L A30G A32V S33G A36N T37A L40S: Gaussia luciferase mutant (protein)
chain: B10 chain with A29L, D30G, I31V, N33G, A36N, T37A, A40S
modifications: SIGNAL (1)..(17)
notes: Gaussia luciferase mutant
B14: V29S A30G V31I A32V S33G A36D T37A: Gaussia luciferase mutant (protein)
chain: B10 chain with A29S, D30G, N33G, A36D, T37A, A40L
modifications: SIGNAL (1)..(17)
notes: Gaussia luciferase mutant
B15: F26D N27H V29K A30G A32G S33L T37L L40R: Gaussia luciferase mutant (protein)
chain: B10 chain with F26D, N27H, A29K, D30G, I31V, V32G, N33L, T37L, A40R
modifications: SIGNAL (1)..(17)
notes: Gaussia luciferase mutant
B16: F26C V29L A30D V31L A32V S33G L40I: Gaussia luciferase mutant (protein)
chain: B10 chain with F26C, A29L, I31L, N33G, A40I
modifications: SIGNAL (1)..(17)
notes: Gaussia luciferase mutant
B17: F26C V29Y S33G A36I T37E L40T: Gaussia luciferase mutant (protein)
chain: B10 chain with F26C, A29Y, D30A, I31V, V32A, N33G, A36I, T37E, A40T
modifications: SIGNAL (1)..(17)
notes: Gaussia luciferase mutant

Experiment: Luminescence activity assay of purified Gaussia luciferase mutants on coelenterazine
Assay type: biochemical
Set-up: key to Activity of mutant relative to wild-type Gaussia luciferase without the signal peptide: ratio of mutant luminescence intensity to wild-type Gaussia luciferase
Conditions: Substrate CTZ (Table 16)
Description: (§1) In this Example, the protein concentration was determined with a BCA quantitative kit (Thermo Scientific™ Pierce™ BCA Protein Assay Kit) accurately. The purified luciferase obtained in Example 5 was diluted with diluent (50 mM Tris-HCl, pH 8.0, 100 mM NaCl, 0.1% (v/v) Tween-20) to 1 μg/mL. The diluted luciferase, taken for 10 μL, was moved into a black 96-well plate, then added with 90 μL of the substrates coelenterazine, fluoro-coelenterazine or coelenterazine derivative ZS2 (purchased from Biolab) which was diluted into 100 μM with the same diluent, and the luminescence intensity of the plate was read with a self-luminescence module of a microplate reader. The mutation site of the mutant, the measured luminescence intensity, the ratio of luminescence intensities of the advantageous mutants to the wild-type Gaussia luciferase without the signal peptide having the sequence shown in SEQ ID NO: 3 are shown in Table 15. The results of catalytic activity assay of the advantageous mutants relative to the wild-type Gaussia luciferase without the signal peptide having the sequence shown in SEQ ID NO: 3 on substrate coelenterazine are shown in FIG. 6. […] The results of catalytic activity assay of the advantageous mutants relative to the wild-type Gaussia luciferase without the signal peptide having the sequence shown in SEQ ID NO: 3 on substrate fluoro-coelenterazine are shown in FIG. 7.
(§2) The new mutant library constructed in Example 7 was screened and tested for substrate specificity. Expression and purification schemes were the same as that in Example 5, and the activity assay scheme was the same as that in Example 6. The respective catalytic activities of combinatorial mutants on coelenterazine, fluoro-coelenterazine or coelenterazine derivative ZS2, and coelenterazine derivative ZS26 (purchased from BIOLAB) were assayed, and comparisons among the substrate specificities of the combinatorial mutants were based on the ratios of catalytic activities on two corresponding substrates.

Row | Activity of mutant relative to wild-type Gaussia luciferase without the signal peptide | Molecule
1 | 1.050 | B1
2 | 0.007 | B2
3 | 0.020 | B3
4 | 0.992 | B4
5 | 1.030 | B5
6 | 0.807 | B6
7 | 0.706 | B7
8 | 0.864 | B8
9 | 0.850 | B9
10 | 1.046 | B10
11 | 0.034 | B11
12 | 1.110 | B12
13 | 0.764 | B13
14 | 0.000 | B14
15 | 0.037 | B15
16 | 0.000 | B16
17 | 0.016 | B17

Experiment: Luminescence activity assay of purified Gaussia luciferase mutants on coelenterazine derivative ZS2
Assay type: biochemical
Set-up: key to Activity of mutant relative to wild-type Gaussia luciferase without the signal peptide: ratio of mutant luminescence intensity to wild-type Gaussia luciferase
Conditions: Substrate ZS2 (Table 16)
Description: as §1, §2

Row | Activity of mutant relative to wild-type Gaussia luciferase without the signal peptide | Molecule
18 | 1.402 | B1
19 | 0.273 | B2
20 | 0.003 | B3
21 | 1.011 | B4
22 | 0.413 | B5
23 | 0.737 | B6
24 | 2.603 | B7
25 | 1.504 | B8
26 | 0.890 | B9
27 | 1.164 | B10
28 | 0.684 | B11
29 | 0.213 | B12
30 | 1.976 | B13
31 | 0.142 | B14
32 | 0.381 | B15
33 | 0.312 | B16
34 | 1.131 | B17
